Patent US20070212390A1

How the values were obtained:
[1] = molecular target: chimeric receptor consisting of the extracellular domain of human VEGFR-3 and the cytoplasmic domain of the erythropoietin receptor, on Ba/F3 cells (human), P35916; experiment: cell-based or functional assay
[2] = molecular target: chimeric receptor consisting of the extracellular domain of mouse VEGFR-2 and the cytoplasmic domain of the erythropoietin receptor, on Ba/F3 cells (mouse), P35918; experiment: cell-based or functional assay
Sequence of chimeric receptor consisting of the extracellular domain of mouse VEGFR-2 and the cytoplasmic domain of the erythropoietin receptor, on Ba/F3 cells (mouse), P35918 (P35918 20-762 limits assumed, change not shown, form in doubt): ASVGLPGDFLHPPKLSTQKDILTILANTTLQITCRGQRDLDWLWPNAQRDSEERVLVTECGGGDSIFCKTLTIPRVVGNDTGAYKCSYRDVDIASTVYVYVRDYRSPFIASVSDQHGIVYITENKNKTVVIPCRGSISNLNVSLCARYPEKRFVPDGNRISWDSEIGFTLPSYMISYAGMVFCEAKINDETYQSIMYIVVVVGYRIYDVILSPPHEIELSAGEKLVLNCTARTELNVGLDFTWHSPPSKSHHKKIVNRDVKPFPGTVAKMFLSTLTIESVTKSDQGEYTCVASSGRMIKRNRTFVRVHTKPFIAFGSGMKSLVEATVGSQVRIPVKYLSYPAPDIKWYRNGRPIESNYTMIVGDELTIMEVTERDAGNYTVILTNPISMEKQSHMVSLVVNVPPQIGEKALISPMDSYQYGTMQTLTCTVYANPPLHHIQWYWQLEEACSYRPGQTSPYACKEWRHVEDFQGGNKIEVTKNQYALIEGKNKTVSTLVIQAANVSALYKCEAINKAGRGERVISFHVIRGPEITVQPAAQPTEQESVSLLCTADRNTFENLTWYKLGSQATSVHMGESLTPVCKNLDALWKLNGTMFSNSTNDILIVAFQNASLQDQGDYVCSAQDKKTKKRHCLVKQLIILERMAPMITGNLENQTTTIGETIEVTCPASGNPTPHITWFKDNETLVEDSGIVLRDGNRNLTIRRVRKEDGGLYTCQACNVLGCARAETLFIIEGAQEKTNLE

Sequence of chimeric receptor consisting of the extracellular domain of human VEGFR-3 and the cytoplasmic domain of the erythropoietin receptor, on Ba/F3 cells (human), P35916 (P35916 25-775 limits assumed, change not shown, form in doubt): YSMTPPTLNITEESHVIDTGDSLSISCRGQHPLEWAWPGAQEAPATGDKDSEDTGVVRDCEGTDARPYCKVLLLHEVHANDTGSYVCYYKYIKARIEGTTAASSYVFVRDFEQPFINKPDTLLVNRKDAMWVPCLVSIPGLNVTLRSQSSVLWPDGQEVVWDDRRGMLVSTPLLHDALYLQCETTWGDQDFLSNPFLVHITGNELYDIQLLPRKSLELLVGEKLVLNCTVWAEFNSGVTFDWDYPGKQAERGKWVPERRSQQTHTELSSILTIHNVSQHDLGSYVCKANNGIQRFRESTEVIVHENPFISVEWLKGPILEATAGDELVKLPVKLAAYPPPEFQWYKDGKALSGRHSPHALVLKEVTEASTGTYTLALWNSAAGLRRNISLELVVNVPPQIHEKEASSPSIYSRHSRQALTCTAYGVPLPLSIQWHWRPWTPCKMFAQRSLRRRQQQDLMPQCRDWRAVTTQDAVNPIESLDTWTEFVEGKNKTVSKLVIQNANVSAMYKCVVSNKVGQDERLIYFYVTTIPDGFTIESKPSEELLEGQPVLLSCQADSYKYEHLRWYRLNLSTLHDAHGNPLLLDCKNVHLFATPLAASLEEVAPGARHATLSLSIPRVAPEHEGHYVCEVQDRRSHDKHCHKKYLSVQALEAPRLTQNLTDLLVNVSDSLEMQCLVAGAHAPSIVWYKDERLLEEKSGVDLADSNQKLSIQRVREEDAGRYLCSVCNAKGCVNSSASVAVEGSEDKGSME

B1: VEGF-D ΔN.IISS (human VEGF-D with R204,205S point mutations and lacking the N-terminal propeptide), O43915 87-354 (ligand)
chain: ARQDYKDDDDKTRFAATFYDIETLKVIDEEWQRTQCSPRETCVEVASELGKSTNTFFKPPCVNVFRCGGCCNEESLICMNTSTSYISKQLFEISVPLTSVPELVPVKVANHTGCKCLPTAPRHPYSIISSSIQIPEEDRCSHSKKLCPIDMLWDSNKCKCVLQEENPLAGTEDHSHLQEPALCGPHMMFDEDRCECVCKTPCPKDLIQHPKNCSCFECKESLETCCQKHKLFHPDTCSCEDRCPFHTRPCASGKTACAKHCRFPKEKRAAQGPHSRKNP
With B1 the activity in VEGFR-3 bioassay (Ba/F3 cell survival and proliferation, tritiated-thymidine incorporation) [1] was 70 fold and the activity in VEGFR-2 bioassay (Ba/F3 cell survival and proliferation, tritiated-thymidine incorporation) [2] was 70 fold.
